{
  "source": "patent US8697629B2",
  "about": "“Modulation of intracellular signaling” (Angstrom Pharmaceuticals, Inc., priority 2010, dated 2014)",
  "type_in_all_cases": "cell-based",
  "key": {"[1]": {"biological_target": "T1, CD44 (Homo sapiens, UniProt P16070)", "T1 construct": "endogenous in cells; host or cells: SKOV3 cells", "T1 sequence (P16070 21-742)": "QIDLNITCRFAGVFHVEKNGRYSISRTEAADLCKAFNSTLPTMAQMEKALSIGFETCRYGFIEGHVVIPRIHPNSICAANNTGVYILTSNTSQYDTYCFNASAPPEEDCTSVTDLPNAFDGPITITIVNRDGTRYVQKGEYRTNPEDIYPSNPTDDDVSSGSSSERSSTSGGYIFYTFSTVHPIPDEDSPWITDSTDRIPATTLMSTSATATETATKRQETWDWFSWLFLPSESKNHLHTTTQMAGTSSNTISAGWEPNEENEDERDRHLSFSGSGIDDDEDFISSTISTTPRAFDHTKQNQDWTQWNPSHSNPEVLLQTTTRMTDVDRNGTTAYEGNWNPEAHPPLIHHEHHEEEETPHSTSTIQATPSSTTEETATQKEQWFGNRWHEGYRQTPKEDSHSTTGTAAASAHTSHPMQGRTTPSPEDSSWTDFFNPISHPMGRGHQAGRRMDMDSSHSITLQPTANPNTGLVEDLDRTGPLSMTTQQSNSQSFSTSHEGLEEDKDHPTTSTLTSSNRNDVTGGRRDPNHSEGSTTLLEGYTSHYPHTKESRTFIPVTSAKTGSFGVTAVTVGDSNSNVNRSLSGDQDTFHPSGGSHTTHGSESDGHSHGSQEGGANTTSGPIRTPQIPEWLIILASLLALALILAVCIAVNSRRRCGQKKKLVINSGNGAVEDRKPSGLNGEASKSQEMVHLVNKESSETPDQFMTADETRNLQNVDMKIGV", "test": "FACs analysis of anti-CD44 (DF1485) binding to SKOV3 cells in the presence of Å6", "conditions": "pre-incubation with Å6 10 or 30 min on ice", "description": "In FIG. 4 SKOV3 cells were detached from their culture flasks by brief trypsinization, washed twice with DPBS and incubated on ice with the indicated concentrations of Å6 for 10 min (exp. 1) or 30 min (exp. 2). Anti-CD44 (DF1485; Santa Cruz Biotech.) or its isotype control were then added to final concentrations of 1 μg/ml (exp. 1) or 1 and 0.5 μg/ml (exp. 2) and the cells incubated for 1 hr on ice. The cells were washed once and incubated with FITC-conjugated donkey anti-mouse IgG (H+L) for 30 minutes on ice and then subjected to FACS analysis with a Beckman Coulter Epics XL-MCL cytofluorimeter. Data analysis was performed using the Coulter Epics software. Note: Data are presented as mean fluorescence intensities (MnI) obtained with the MnI of the negative control in each experiment adjusted to <0.5 during data collection. […] Similar CD44 expression in ovarian cancer lines using different anti-CD44 antibodies is assessed in FIG. 5, for which the MnI values are summarized in FIG. 6."}, "[2]": {"biological_target": "T1, CD44", "test": "IM7 binding to SKOV3 cells, FACs analysis", "conditions": "IM7 1 μg/ml, 4° C.", "description": "In FIGS. 14a and 14b SKOV3 cells were incubated with the indicated concentrations of Å6 for 30 min at 4° C. IM7 (1 μg/ml) was then added and allowed to bind for 30 min at 4° C., after which the cells were washed and incubated with FITC-donkey anti-rat IgG for 30 min at 4° C. The cells were washed once and then subjected to FACs analysis."}, "[3]": {"tested_on": "MEK", "test": "MEK phosphorylation (S217/221) in SKOV3 cells, immunoblot and densitometry", "description": "Cells were detached from their culture vessels by brief trypsinization, suspended in complete media and centrifuged at 250×g for 10 min at room temperature. The cell pellets were suspended in Dulbeco's phosphate buffered saline (DPBS) and re-centrifuged for a total of three washes. The cells were then re-suspended at 3.33E5/ml in 24 ml of either RPMI containing 0.5% BSA (Sigma Chem. Co. #A0336) (RPMI/BSA) or the conditioned media of growing NIH3T3 fibroblasts (10% FBS in DMEM) supplemented with 10 ng/ml vascular endothelial growth factor (VEGF) (CMN). The cells were then treated with or without 100 ug/ml soluble hyaluronic acid (HA; human umbilical, Calbiochem #385902) for 30 min at 37° C. under 5% CO2. Aliquots representing 2E6 cells were then plated into 10 cm culture dishes and A6 added to yield final concentrations of 0, 10, 100 and 1000 nM. The cells were cultured overnight (18 hr) at 37° C. under 5% CO2.\nAfter 18 hr of treatment, the media were aspirated from the 10 cm dishes and saved. The plates were washed 3 times with 4 ml of ice-cold DPBS which were pooled with the reserved non-adherent cells. The non-adherent cells were centrifuged at 250×g for 10 min at 4° C., washed twice with cold DPBS, drained and lysed in 50 ul of cold RIPA buffer (ThermoScientific #89901) containing cocktails of broad spectrum phosphatase inhibitors (Calbiochem #524625; used at 2× final concentration) and protease inhibitors (Sigma #P8340) (RIPA/inh.). The 10 cm dishes were drained of remaining wash and the adherent cells lysed by scraping in 200 μL of cold RIPA/inh. For each test condition, the lysates of the non-adherent and adherent populations were combined, vortexed and then centrifuged at 14,000 rpm at 4° C. for 20 min. Aliquots of the cleared lysates were frozen at −80° C. immediately. A small aliquot was reserved for total protein analysis using a BCA Protein Assay Kit (Calbiochem #71285-3).\nSamples representing 20 μg of total protein of each lysate were solubilized in the presence of 50 mM Tris pH 6.8, 10% glycerol, 2% SDS and 100 mM DTT for 5 min at 95° C. and then loaded onto 10-20% acrylamide gels (BioRad #345-0044, Tris-HCl, 1 mm, 26 well, 15 μL/well). Electrophoresis was performed using Laemli electrophoresis buffer (0.1% SDS, 25 mM Tris, 192 mM glycine) at 200 V, constant voltage, for one hour. Upon completion of electrophoresis, the proteins were transferred to Immun-Blot PVDF membranes (BioRad #162-0238) in ice-cold 20% methanol in 25 mM Tris, 192 mM glycine for 2 hr at 0.5 Amps, constant current/blotting apparatus. […]\nThe integrated densities (id) of the bands of interest were measured using Image J software (NIH). […]"}},
  "data": [
    {"substance": "acetyl-Lys-Pro-Ser-Ser-Pro-Pro-Glu-Glu-NH2 (Ac-KPSSPPEE-NH2) [Å6]", "values": [
      {"measurement": "binding of DF1485 anti-CD44 to SKOV3 cells (MnI)", "setting": "[1]", "value": "inhibits the binding of DF1485 anti-CD44 to SKOV3 cells"},
      {"measurement": "IM7 antibody binding to SKOV3 cells", "setting": "[2]", "value": "increase in antibody binding with increasing concentration"},
      {"measurement": "CM/V-increased pMEK/MEK ratios", "setting": "[3]; CM/V", "value": "potentiated this response"},
      {"measurement": "pMEK/MEK", "setting": "[3]; under all conditions", "value": "enhanced"}
    ]}
  ]
}
